B1: GST-tagged ELMO1-RBD (residues 1-113), wild-type [human] / RhoG (residues 1-184) [human] (parent complex)
chain 1: MPPPADIVKVAIEWPGAYPKLMEIDQKKPLSAIIKEVCDGWSLANHEYFALQHADSSNFYITEKNRNEIKNGTILRLTTSPAQNAQQLHERIQSSSMDAKLEALKDLASLSRD
chain 2: not shown

Variants of: B1
Test: SPR; read at the highest RhoG concentration, about 35 µM; RhoG in the active GTPγS-bound form; read off a plot

response [%]	Variant
~0	chain 1 K9A
~18	chain 1 L21A
~78	chain 1 N58A
~46	chain 1 E13A
~64	chain 1 K20E
~59	chain 1 Y18A

Variants of: B1
Test: SPR; RhoG in the active GTPγS-bound form; n = 3 independent experiments

Kd [µM]	Variant
163	chain 1 L21A
10	chain 1 N58A
44.3	chain 1 E13A

Reference: paper PMC10023680 (2023)
